Measured values: publication PMC6899190 (Nature structural & molecular biology, 2019)
Changes are numbered by the printed parent chain. Numbers in names are those of the source.

B1: A3F_(CTDm) D260R/D261R (domain or fragment)
chain: KEILRNPMEAMDPHIFYFHFKNLRKAYGRNESWLCFTMEVVKHHSPVSWKRGVFRNQVDPETGRHAERCFLSWFCRRILSPNTNYEVTWYTSWSPCPECAGEVAEFLARHSNVNLTIKTARLYYFKDTDAAEGLRSLSQEGASVEIMGYKDFKYCWENFVYNDDEPFKPWDGLDYNFLDLDSKLQEILE
B2: A3F_(CTDm) R293D (domain or fragment)
chain: B1 chain with R76D, R77D, R109D
B3: A3F_(CTDm) D347R (domain or fragment)
chain: B1 chain with R76D, R77D, D163R
B4: A3F_(CTDm) P265A (domain or fragment)
chain: B1 chain with R76D, R77D, P81A

Experiments:
[1] = biological target: MBP-tagged Vif–CBFβ–EloB–EloC complex (wild type) (HIV-1 (pNL4–3) | human | , UniProt P12504;Q13951-2;Q15370;Q15369); assay: pull-down
[2] = biological target: MBP-tagged Vif–CBFβ–EloB–EloC complex with CBFβ E54K (HIV-1 (pNL4–3) | human | , UniProt P12504;Q13951-2;Q15370;Q15369, E54K); assay: pull-down
[3] = biological target: truncated Vif–CBFβ subcomplex (Vif176Δ114–157 with CBFβ151) (HIV-1 (pNL4–3) | human, UniProt P12504;Q13951); assay: SEC

Binder | binding result [1] | binding result [2] | binding result [3]
B1 | binds | – | –
B2 | – | binds | –
B3 | binds | – | binds
B4 | binds | – | –
